Laboratory results as given in the supplement of paper PMC10065799, “High-throughput profiling of sequence recognition by tyrosine kinases and SH2 domains using bacterial peptide display” (eLife, 2023).

Tests used:
AncSZ = experiment: phosphorylation enrichment, bacterial display (enrichment ratio); higher = better substrate or ligand; peptides without Tyr show the background
EPHB1 = EPHB1 (UniProt P54762); experiment: as above
EPHB2 = EPHB2 (UniProt P29323); experiment: as above
FGFR1 = FGFR1 (UniProt P11362); experiment: as above
FGFR3 = FGFR3 (UniProt P22607); experiment: as above
Fer (mouse) = experiment: as above
Fes = Fes (UniProt P07332); experiment: as above
Sequence of Fes (P07332 whole entry, looked up): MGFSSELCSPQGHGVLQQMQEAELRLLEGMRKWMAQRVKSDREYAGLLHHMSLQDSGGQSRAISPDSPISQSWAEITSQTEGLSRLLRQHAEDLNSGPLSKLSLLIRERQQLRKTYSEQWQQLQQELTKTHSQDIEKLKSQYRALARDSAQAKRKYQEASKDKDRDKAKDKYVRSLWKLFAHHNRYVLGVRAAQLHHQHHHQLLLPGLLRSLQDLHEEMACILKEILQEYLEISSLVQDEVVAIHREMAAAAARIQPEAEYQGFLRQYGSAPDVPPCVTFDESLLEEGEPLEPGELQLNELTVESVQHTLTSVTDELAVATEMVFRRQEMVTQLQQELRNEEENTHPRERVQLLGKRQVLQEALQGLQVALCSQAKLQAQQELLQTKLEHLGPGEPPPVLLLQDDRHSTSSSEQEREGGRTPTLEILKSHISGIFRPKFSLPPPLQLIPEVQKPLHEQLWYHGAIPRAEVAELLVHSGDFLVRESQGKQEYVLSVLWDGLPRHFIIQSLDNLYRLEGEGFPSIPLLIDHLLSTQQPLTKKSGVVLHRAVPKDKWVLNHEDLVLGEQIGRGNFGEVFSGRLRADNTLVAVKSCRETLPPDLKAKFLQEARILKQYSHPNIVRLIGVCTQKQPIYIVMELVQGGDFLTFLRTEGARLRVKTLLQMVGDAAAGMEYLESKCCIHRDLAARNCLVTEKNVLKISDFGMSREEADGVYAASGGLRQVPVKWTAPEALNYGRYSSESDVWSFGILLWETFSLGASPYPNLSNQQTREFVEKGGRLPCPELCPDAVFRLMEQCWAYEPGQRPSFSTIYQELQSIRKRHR

Fyn = Fyn (UniProt P06241); experiment: as above
Sequence of Fyn (P06241 whole entry, looked up): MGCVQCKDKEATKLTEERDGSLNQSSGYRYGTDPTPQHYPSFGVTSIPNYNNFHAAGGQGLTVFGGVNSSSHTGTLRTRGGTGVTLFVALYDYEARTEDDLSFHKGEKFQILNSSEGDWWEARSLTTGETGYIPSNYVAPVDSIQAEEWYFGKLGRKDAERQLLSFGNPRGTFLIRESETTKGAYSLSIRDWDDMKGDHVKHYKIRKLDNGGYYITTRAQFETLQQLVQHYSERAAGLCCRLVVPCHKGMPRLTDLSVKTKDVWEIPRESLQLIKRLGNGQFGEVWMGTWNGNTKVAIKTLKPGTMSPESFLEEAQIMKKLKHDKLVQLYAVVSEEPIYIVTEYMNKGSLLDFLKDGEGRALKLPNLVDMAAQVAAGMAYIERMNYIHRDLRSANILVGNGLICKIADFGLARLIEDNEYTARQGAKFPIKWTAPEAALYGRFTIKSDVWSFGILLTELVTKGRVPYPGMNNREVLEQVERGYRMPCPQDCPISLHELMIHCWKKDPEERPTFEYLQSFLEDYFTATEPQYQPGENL

Hck = Hck (UniProt P08631); experiment: as above
Sequence of Hck (P08631 whole entry, looked up): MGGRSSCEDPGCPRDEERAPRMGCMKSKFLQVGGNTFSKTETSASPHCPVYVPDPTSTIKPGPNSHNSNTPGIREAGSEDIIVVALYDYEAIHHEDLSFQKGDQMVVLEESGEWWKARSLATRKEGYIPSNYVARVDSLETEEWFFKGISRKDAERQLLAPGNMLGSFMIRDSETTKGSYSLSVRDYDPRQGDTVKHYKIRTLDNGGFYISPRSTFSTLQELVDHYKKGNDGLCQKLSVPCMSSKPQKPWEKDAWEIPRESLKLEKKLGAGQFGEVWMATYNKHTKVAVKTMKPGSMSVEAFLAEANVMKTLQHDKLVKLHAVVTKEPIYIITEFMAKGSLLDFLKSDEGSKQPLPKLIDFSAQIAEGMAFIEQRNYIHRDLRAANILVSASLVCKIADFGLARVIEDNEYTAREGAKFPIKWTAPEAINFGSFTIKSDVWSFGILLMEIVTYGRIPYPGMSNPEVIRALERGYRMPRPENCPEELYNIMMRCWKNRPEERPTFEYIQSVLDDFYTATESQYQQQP

Jak2 = Jak2 (UniProt O60674); experiment: as above
Sequence of Jak2 (O60674 whole entry, looked up): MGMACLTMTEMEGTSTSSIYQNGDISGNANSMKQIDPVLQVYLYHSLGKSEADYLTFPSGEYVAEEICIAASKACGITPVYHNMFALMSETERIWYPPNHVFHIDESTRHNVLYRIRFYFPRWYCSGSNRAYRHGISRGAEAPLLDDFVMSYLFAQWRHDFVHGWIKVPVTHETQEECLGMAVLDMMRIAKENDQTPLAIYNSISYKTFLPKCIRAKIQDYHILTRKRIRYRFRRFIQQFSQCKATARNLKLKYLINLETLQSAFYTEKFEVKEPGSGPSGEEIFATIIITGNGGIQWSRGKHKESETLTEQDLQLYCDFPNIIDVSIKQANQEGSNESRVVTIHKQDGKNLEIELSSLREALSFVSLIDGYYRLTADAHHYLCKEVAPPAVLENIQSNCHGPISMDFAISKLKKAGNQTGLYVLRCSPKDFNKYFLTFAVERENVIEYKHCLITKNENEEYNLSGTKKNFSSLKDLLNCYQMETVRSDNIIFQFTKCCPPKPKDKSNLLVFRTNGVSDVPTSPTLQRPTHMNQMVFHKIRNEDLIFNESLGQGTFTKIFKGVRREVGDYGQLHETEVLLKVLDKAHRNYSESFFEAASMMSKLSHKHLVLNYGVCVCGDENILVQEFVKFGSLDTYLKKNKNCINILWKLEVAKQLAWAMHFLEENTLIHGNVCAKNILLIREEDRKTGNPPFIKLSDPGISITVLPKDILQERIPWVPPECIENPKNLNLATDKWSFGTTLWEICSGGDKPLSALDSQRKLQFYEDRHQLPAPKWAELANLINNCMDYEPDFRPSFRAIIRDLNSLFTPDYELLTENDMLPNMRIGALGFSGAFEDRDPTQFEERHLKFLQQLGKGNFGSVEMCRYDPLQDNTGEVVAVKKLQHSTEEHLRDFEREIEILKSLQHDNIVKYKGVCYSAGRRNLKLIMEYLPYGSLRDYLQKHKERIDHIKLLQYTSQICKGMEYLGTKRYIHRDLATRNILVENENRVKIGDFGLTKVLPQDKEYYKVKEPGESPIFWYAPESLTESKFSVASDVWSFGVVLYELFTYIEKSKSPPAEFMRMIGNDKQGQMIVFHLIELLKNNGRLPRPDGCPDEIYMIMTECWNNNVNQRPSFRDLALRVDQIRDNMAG

MERTK = MERTK (UniProt Q12866); experiment: as above
c-Abl (mouse) = experiment: as above
c-Src = experiment: as above
Grb2 SH2 = Grb2 SH2 (UniProt P62993); experiment: SH2 binding enrichment of the phosphorylated peptide, bacterial display (enrichment ratio); higher = better substrate or ligand; peptides without Tyr show the background
SHP2-C SH2 = experiment: as above
c-Src SH2 = experiment: as above
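Wherever SH2 binding enrichment of the phosphorylated peptide, bacterial display is given: peptide library displayed on the E. coli surface as eCPX fusions, selected cells deep-sequenced, score is each peptide's frequency after selection divided by its frequency in the input.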
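Wherever phosphorylation enrichment, bacterial display is given: 11-residue human phosphosite peptides and single-mutation variants displayed on the E. coli surface, counted by deep sequencing, each peptide's frequency after selection divided by its frequency in the unselected input library; frequency after pTyr selection over input frequency; kinase dosed for 20-30% of maximal phosphorylation in three min.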

Sequence of EPHB1 (P54762 whole entry, looked up): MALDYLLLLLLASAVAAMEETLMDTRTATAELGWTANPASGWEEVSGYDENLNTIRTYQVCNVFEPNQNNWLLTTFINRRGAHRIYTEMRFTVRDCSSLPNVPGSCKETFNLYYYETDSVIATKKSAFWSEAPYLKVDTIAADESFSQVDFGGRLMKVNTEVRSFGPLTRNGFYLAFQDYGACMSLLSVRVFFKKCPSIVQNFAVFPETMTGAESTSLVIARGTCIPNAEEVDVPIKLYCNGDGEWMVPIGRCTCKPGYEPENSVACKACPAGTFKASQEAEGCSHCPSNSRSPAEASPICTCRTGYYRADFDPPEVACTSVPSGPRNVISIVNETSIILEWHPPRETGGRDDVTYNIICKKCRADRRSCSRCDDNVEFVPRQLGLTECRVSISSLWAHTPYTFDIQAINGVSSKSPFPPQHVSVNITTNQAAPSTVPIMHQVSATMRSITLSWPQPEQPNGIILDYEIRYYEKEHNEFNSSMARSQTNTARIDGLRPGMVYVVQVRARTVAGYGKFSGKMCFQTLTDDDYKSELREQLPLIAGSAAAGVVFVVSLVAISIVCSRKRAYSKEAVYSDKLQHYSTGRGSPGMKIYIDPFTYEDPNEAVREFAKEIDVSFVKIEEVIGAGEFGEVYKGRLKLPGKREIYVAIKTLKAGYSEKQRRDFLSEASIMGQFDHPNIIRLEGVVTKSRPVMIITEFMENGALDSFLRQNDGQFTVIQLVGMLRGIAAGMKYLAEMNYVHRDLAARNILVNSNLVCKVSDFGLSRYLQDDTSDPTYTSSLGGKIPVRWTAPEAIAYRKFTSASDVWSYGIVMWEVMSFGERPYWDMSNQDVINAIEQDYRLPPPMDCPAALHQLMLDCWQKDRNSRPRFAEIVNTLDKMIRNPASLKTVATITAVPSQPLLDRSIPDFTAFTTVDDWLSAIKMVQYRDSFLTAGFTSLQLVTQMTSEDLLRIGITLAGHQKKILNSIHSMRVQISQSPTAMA
Sequence of EPHB2 (P29323 whole entry, looked up): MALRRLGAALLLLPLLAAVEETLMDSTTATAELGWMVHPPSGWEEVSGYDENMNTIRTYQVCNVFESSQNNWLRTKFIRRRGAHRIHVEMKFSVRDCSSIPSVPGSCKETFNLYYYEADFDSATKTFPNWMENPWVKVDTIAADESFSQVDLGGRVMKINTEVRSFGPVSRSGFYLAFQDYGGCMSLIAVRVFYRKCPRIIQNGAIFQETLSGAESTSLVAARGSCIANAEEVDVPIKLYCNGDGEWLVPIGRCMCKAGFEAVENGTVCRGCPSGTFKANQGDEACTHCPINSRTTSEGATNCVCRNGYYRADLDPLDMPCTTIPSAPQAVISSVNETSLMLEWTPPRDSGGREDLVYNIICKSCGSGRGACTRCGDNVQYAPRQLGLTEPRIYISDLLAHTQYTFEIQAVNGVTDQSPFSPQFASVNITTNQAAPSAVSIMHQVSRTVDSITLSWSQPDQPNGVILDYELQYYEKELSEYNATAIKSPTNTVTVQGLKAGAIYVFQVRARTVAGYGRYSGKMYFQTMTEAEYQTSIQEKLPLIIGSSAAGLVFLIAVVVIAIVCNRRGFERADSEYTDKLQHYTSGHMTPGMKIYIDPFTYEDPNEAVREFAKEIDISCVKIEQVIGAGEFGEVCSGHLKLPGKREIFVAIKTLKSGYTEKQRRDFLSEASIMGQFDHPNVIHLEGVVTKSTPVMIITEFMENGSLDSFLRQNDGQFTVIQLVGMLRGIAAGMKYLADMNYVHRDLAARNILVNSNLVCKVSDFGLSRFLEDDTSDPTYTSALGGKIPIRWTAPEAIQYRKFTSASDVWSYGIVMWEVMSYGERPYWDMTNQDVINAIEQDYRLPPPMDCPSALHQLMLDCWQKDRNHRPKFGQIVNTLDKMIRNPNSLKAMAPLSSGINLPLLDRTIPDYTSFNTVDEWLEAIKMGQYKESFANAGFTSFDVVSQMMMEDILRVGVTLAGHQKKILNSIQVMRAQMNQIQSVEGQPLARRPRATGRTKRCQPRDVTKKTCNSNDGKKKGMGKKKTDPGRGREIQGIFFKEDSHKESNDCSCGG

SH2 binding enrichment (Grb2 SH2) | SH2 binding enrichment (SHP2-C SH2) | SH2 binding enrichment (c-Src SH2) | Sequence | phosphorylation enrichment (AncSZ) | phosphorylation enrichment (EPHB1) | phosphorylation enrichment (EPHB2) | phosphorylation enrichment (FGFR1) | phosphorylation enrichment (FGFR3) | phosphorylation enrichment (Fer (mouse)) | phosphorylation enrichment (Fes) | phosphorylation enrichment (Fyn) | phosphorylation enrichment (Hck) | phosphorylation enrichment (Jak2) | phosphorylation enrichment (MERTK) | phosphorylation enrichment (c-Abl (mouse)) | phosphorylation enrichment (c-Src)
0.854 | 3.93 | 3.17 | PSELFYSKISP [SMG1_Y2254_G2258S_YF] | 1.15 | 1.59 | 1.52 | 3.79 | 2.72 | 11.3 | 0.972 | 2.06 | 8.64 | 2.3 | 13.6 | 3.5 | 3.48
0.847 | 0.492 | 0.447 | ERDTVYSSSGV [NELL2_Y350_N347D] | 0.711 | 0.435 | 0.52 | 0.502 | 0.584 | 0.451 | 0.883 | 1.78 | 1.5 | 0.601 | 0.42 | 0.617 | 1.79
0.845 | 0.683 | 0.576 | QISRDYGVLLE [PRDX3_Y172] | 0.922 | 0.617 | 0.731 | 0.523 | 0.69 | 0.637 | 1.04 | 0.624 | 0.751 | 0.862 | 0.64 | 0.635 | 0.679
0.921 | 0.597 | 0.465 | TTTQAYRVDER [PRKN_Y391] | 0.709 | 0.473 | 0.439 | 0.446 | 0.512 | 0.479 | 0.758 | 0.482 | 0.446 | 0.57 | 0.404 | 0.714 | 0.389
1.15 | 1.12 | 0.919 | PFGQWYESHFA [RPS8_Y113_R110G_YF] | 1.3 | 5.8 | 4.94 | 1.01 | 1.01 | 17.7 | 1.43 | 1.32 | 1.53 | 0.907 | 4.87 | 0.764 | 4.21
0.838 | 0.877 | 1.05 | ETKRPYTVILI [SBDS_Y128] | 1.06 | 0.57 | 0.527 | 0.582 | 0.722 | 1.16 | 1.15 | 0.457 | 0.481 | 1.01 | 0.479 | 0.825 | 0.458
0.607 | 0.515 | 0.467 | ICFSDYVEVAD [PHACTR1_Y525_R521C] | 2.01 | 1.81 | 1.42 | 2.34 | 2.26 | 0.609 | 1.55 | 0.555 | 0.698 | 1.28 | 0.459 | 0.985 | 0.549
1.54 | 2.38 | 1.38 | ALKKPYGVLYK [RPF2_Y59] | 0.643 | 0.544 | 0.4 | 0.455 | 0.516 | 0.5 | 0.775 | 0.503 | 0.675 | 0.72 | 0.397 | 0.675 | 0.707
0.619 | 0.614 | 0.456 | KHGGNYVPAPE [OSCP1_Y237_K242E] | 0.754 | 0.369 | 0.471 | 0.403 | 0.477 | 0.36 | 0.626 | 0.398 | 0.325 | 0.471 | 0.345 | 0.455 | 0.405
0.766 | 0.79 | 0.549 | GGYTCYCDGKK [PROS1_Y266] | 0.985 | 0.537 | 0.474 | 0.457 | 0.728 | 0.484 | 1.38 | 0.403 | 0.462 | 1.2 | 0.439 | 0.915 | 0.499
0.824 | 0.679 | 0.484 | ELCSEYHKSRK [SPINK5_Y440_R441H] | 0.73 | 0.405 | 0.412 | 0.513 | 0.53 | 0.507 | 1.02 | 0.487 | 0.442 | 0.945 | 0.532 | 0.999 | 0.633
0.93 | 0.946 | 0.76 | KKFPDYIQIAM [SGMS2_Y59_YF] | 1.13 | 4.26 | 0.672 | 8.61 | 5.17 | 0.427 | 1.06 | 0.468 | 0.496 | 1.07 | 0.461 | 0.7 | 0.556
2.2 | 2.02 | 1.75 | LSCVIYVILRK [PMP22_Y153_G150C] |  |  |  |  |  |  |  |  |  | 1.83 |  | 1.39 | 1.06

Further lines, the sequence ahead of its results:

Sequence | SH2 binding enrichment (Grb2 SH2) | SH2 binding enrichment (SHP2-C SH2) | SH2 binding enrichment (c-Src SH2) | phosphorylation enrichment (AncSZ) | phosphorylation enrichment (EPHB1) | phosphorylation enrichment (EPHB2) | phosphorylation enrichment (FGFR1) | phosphorylation enrichment (FGFR3) | phosphorylation enrichment (Fer (mouse)) | phosphorylation enrichment (Fes) | phosphorylation enrichment (Fyn) | phosphorylation enrichment (Hck) | phosphorylation enrichment (Jak2) | phosphorylation enrichment (MERTK) | phosphorylation enrichment (c-Abl (mouse)) | phosphorylation enrichment (c-Src)
ATYRGYDSDNP [MMUT_Y146_H143Y] | 0.862 | 0.562 | 0.526 | 0.742 | 0.427 | 0.431 | 0.453 | 0.543 | 0.409 | 0.751 | 0.528 | 0.444 | 0.658 | 0.365 | 0.476 | 0.626
SSVKLYRVFCD [FGB_Y266_P265L_YF] | 0.665 | 0.633 | 0.395 | 0.945 | 0.579 | 0.668 | 0.487 | 0.749 | 0.469 | 1.12 | 0.468 | 0.514 | 0.935 | 0.41 | 0.648 | 0.47
WTAHSYRMGST [ARHGEF7_Y785] | 0.838 | 0.651 | 0.538 | 0.642 | 0.46 | 0.407 | 0.496 | 0.47 | 0.482 | 0.659 | 0.479 | 0.432 | 0.432 | 0.37 | 0.437 | 0.374
KFMVGYEMIAQ [GALT_Y339_L342I] | 0.914 | 0.884 | 7.36 | 1.03 | 0.58 | 0.569 | 0.492 | 0.723 | 0.487 | 1.06 | 0.444 | 0.507 | 0.956 | 0.457 | 0.696 | 0.427
MYVKSYTIHYS [F5_Y2153] | 0.666 | 0.826 | 0.443 | 1.03 | 0.723 | 0.732 | 0.542 | 0.815 | 0.508 | 1.17 | 0.492 | 0.516 | 0.86 | 0.446 | 0.674 | 0.425
KGEDFYCVTYH [FHL1_Y149_C153Y] | 0.562 | 0.484 | 0.39 | 1.84 | 1.09 | 1.12 | 1.1 | 1.22 | 2.15 | 1.5 | 2.6 | 1.71 | 1.25 | 3.58 | 1.04 | 2.37
SDFFAYSPVRE [H6PD_Y449_YF] | 0.798 | 1.06 | 1.37 | 0.928 | 0.614 | 0.591 | 0.422 | 0.675 | 0.821 | 1.02 | 0.514 | 0.68 | 1.01 | 0.473 | 0.615 | 0.573
EHTTLYSNNST [KANSL1_Y223] | 0.846 | 0.863 | 0.651 | 0.632 | 0.387 | 0.53 | 0.356 | 0.431 | 0.602 | 0.65 | 0.423 | 0.568 | 0.575 | 0.386 | 0.487 | 0.455
FLAVGYHKLHI [IDS_Y225_P228L] | 1.36 | 1.42 | 1.25 | 1.03 | 0.545 | 0.575 | 0.447 | 0.804 | 0.432 | 1.14 | 0.647 | 0.427 | 1.13 | 0.471 | 0.833 | 0.462
FTRNFYVWAVL [CYBA_Y88_R90W_YF] | 1.09 | 0.737 | 0.633 | 1.25 | 0.573 | 0.383 | 0.498 | 0.756 | 0.466 | 1.42 | 0.427 | 0.473 | 1.31 | 0.454 | 1.61 | 0.508
IDLEKYKLLPE [DHFR_Y157] | 0.844 | 0.718 | 0.486 | 0.956 | 0.528 | 0.738 | 0.546 | 0.683 | 0.51 | 1.2 | 0.511 | 0.433 | 0.92 | 0.484 | 0.775 | 0.39
PQAVRYIYTID [DCX_Y103_G100A] | 0.882 | 17.1 | 0.644 | 1.12 | 0.74 | 0.722 | 0.723 | 0.74 | 0.67 | 1.42 | 7.37 | 3.66 | 0.983 | 1.72 | 1.01 | 6.46
RALCHYFKLNI [ETV6_Y401_R399C_YF] | 1.34 | 2.22 | 1.5 | 1.33 | 0.691 | 0.885 | 0.783 | 0.975 | 0.719 | 1.37 | 0.54 | 0.776 | 1.27 | 0.634 | 1.09 | 0.667
KRGIDYILRHM [FRMD1_Y225] | 1.95 | 1.99 | 1.68 | 0.792 | 0.494 | 0.463 | 0.457 | 0.592 | 0.415 | 0.872 | 0.414 | 0.396 | 0.654 | 0.396 | 0.567 | 0.387
GKTQQYDCKWY [BCR_Y751] | 0.805 | 0.601 | 0.758 | 0.864 | 0.554 | 0.532 | 0.464 | 0.598 | 0.432 | 1.05 | 0.441 | 0.554 | 1.05 | 0.515 | 0.769 | 0.55
VITDYYVDMKF [MPP4_Y567] | 0.993 | 0.6 | 1.31 | 1.61 | 3.65 | 1.98 | 7.13 | 5.31 | 1.4 | 1.23 | 0.881 | 0.929 | 2.25 | 1.15 | 1.18 | 0.88
TNQVIYLNPPI [DYNC1H1_Y970] | 0.819 | 0.99 | 0.459 | 0.849 | 7.69 | 4.73 | 3.51 | 2.94 | 0.473 | 0.77 | 0.62 | 1.45 | 0.706 | 3.71 | 13.9 | 0.743
SRGLAYPARPA [LEMD2_Y122] | 0.825 | 0.606 | 0.413 | 0.359 | 0.328 | 0.332 | 0.34 | 0.266 | 0.288 | 0.419 | 0.331 | 0.339 | 0.401 | 0.339 | 0.386 | 0.335
YETDYYRKGGK [INSR_Y1190] | 0.675 | 0.676 | 0.622 | 0.668 | 0.41 | 0.419 | 0.522 | 0.492 | 0.392 | 0.864 | 0.398 | 0.469 | 0.83 | 0.427 | 0.752 | 0.338
VNNLVYENING [FRS2_Y306_K303N] | 5.57 | 1.35 | 2.29 | 1.17 | 11.8 | 4.94 | 0.57 | 0.576 | 11.8 | 2.21 | 6.01 | 7.03 | 0.571 | 5.31 | 0.703 | 5.42
GIVEDYRPRFY [ACVRL1_Y421_P424R] | 0.882 | 0.757 | 0.481 | 0.7 | 0.375 | 0.615 | 0.409 | 0.521 | 0.519 | 0.952 | 0.447 | 0.537 | 0.619 | 0.674 | 0.585 | 0.464
